# From patent US20250197461A1, “Insect-derived short peptide for improving abscisic acid (ABA) content in cruciferous plant” (Gannan Normal University, priority 2023, published 2025)
# Biological target: T1, zeaxanthin epoxidase aba1 (Arabidopsis thaliana, UniProt Q9FGC7)
# T1 construct: expressed in transfected cells; host or cells: Y2HGold yeast (Saccharomyces cerevisiae)
# T1 sequence (Q9FGC7 60-667): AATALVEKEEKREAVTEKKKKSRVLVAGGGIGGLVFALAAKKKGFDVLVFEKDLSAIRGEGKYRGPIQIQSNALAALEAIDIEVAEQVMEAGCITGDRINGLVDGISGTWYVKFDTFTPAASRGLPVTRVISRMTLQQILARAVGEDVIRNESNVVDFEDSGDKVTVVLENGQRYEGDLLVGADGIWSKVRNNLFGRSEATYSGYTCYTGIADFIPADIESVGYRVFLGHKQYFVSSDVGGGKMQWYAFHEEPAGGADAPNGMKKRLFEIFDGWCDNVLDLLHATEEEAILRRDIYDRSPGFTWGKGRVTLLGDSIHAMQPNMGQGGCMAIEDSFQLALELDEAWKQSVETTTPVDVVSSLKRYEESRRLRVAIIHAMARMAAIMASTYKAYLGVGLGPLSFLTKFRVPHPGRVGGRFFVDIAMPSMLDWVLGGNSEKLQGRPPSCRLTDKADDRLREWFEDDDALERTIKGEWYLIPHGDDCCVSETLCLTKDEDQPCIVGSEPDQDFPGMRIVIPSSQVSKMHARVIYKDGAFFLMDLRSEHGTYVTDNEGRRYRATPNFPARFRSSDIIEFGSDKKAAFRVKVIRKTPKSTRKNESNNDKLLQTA
# Assay: Yeast two-hybrid interaction of GSS1 and its variants with aba1
# Assay type: binding
# Conditions: Y2HGold yeast, TDO/QDO with x-α-gal
# Description: A Y2HGold yeast transformant containing the correct pGBKT7-GSS1 bait plasmid was used as a recipient strain to prepare competent cells, and a library plasmid extracted from the yeast library was transferred into the competent cells, and coated on the SD-Trp-Leu-His+5 mM3AT plate. […]
sequence,measurement,value
PDYKQKLRDSKAWESLETIGIPLDADVM (insect-derived short peptide) [GSS1-PI],interaction with aba1 (yeast two-hybrid),interacted with aba1
